Assay: yeast display, Sf9 membrane polyspecificity reagent, FACS + sequencing; frameworks hold sequencing errors
How it was run: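 Synthetic nanobody libraries on Saccharomyces cerevisiae BJ5465 were galactose-induced for 36–48 hours, stained 1 hour at 4 °C with 10% biotinylated, detergent-solubilized Sf9 membrane reagent and enriched on streptavidin microbeads. FACS then separated cells into low and high (top ~1%) gates by anti-HA (expression) and streptavidin (reagent binding) fluorescence. Genes were colony-PCR amplified, MiSeq 2 × 250 sequenced and CDR-length filtered. A clone's polyreactivity label is that of its gate of origin.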

Sequence: QVQLVESGGGLVQAGCSLRLSCAASGITFAWYAMGWYRQAPGKERELVAAIDDRGGSTYYADSVKGRFTISRDNAKNTVYLQMNSLKPEDTAVYYCNADTPSYEPYRLDYWGQGTQVTVSS
- polyreactivity (PSR sort gate): low polyreactivity

Sequence: QVQHVESGGGLVQAGGSLRLSCAASGITFGDNDMGWYRQAPGKERELVASISSGGSTTYADSVKGRFTISRDNAKNTVYLQMNSLKPEDTAVYYCNADYGSSVEYNYWGQGTKVTVSS
- polyreactivity (PSR sort gate): low polyreactivity

Sequence: QVQLVESGGGLVQAGGSLRLSCDASGRTFFYNAMGLYRQAPGKERELVAAISKNGGNTYYADSVKGRFTISRDNAKNTVYLQMNSLKPEDTAVYYCAARQSRTGPDRNDYWGQGTQVTVSS
- polyreactivity (PSR sort gate): high polyreactivity

Sequence: QVQLVESGGGLVQAGGSLRLSCAASGGIFSFKAMGWYIQAPGKERELVAAITTRGGSTYYADSVKGRFTISRDNAKNTVYLQMNSLKPEDTAVYYCAAEGYEEFNWGQGTQVTVSS
- polyreactivity (PSR sort gate): low polyreactivity

Sequence: QFQLVESGRGLVQAGVSLRLSCASSGFTFILYAIGCYRQATGKERELVAGISNGGSTYYADSVKGRFTISRDNAKNTVYFQMNSLKPEDTAVDYCNRDLTFYLYVSGNYFGQGTQVTVSS
- polyreactivity (PSR sort gate): low polyreactivity

Sequence: QVQLVESGGGLVQAGGSLRLSSAASGRIFAVYAMGWYRQAPGKEREFVAAISYSGGITYYADSVKGRFTISRDNAKNTVYLQMNSLKPEDTAVYYCNAYYYFWGQGTQVTVSS
- polyreactivity (PSR sort gate): low polyreactivity

Sequence: QVQLVESGGGLVQAGGSLRLSCAASGSTFYRYAMGWYRQAPGKERELVARIRLSGTSTYYADSVKGRFTISRDNAKNTVYLQMNSLKPEDTAVYYCAAELYSRNWRSQYDYWGQGTQVTVSS
- polyreactivity (PSR sort gate): high polyreactivity

Sequence: QVQLVESGGGLVQAGGSLRLSCAASGYIFKPNTMGWYRQAPGKERELVAAITRGGRTKYADSVKGRFTISRDNAKNTVYLQMNSLKPEDTAVYYCAAALPVQYRDMYSWGQGTQVTVSS
- polyreactivity (PSR sort gate): high polyreactivity

Sequence: QVQLVESGGGLVQAGGSLRLSCAASGRTFVSYTMVWYRQAPGKERELVAAISSGGSTTYADSVKGRFTISRDNAKNTVYLQKNSLKPEDTAVYYCNARYGWSYWSKYDYWGQGTQVTVSS
- polyreactivity (PSR sort gate): high polyreactivity

Sequence: QVQLVESGGGLVQAGGSLRLSCAASGSTFRGNAMGWYRQAPGKERELVASITGGGSTNYADSVKGRFTISRDNAKNTVYLQMNSLKPEDTAVYYCAADWGADFYWGQGTQVTVSS
- polyreactivity (PSR sort gate): low polyreactivity

Sequence: QVQLVESGGGLVQAGGSLRLSCAASGRIFAAYAMGWYRQAPGKERELVASISRGGSTNYADSVKGRFTISRDNAKNTVYLQMNSLKPEDTAVYYCAARQGSTYYAYYYWGQGTQVTVSS
- polyreactivity (PSR sort gate): high polyreactivity

Sequence: QVQLVETGGGLVQAGGSLRLSCAATGLNFWLYAMAWYRQAPGKEREFVAVISWSGGTTYYADSVKGLFTISRDYAKNTVYLTMTTLIPEDTAVYFCAAQVCYYTNYREFDYWGQGTQVTVSS
- polyreactivity (PSR sort gate): low polyreactivity

Sequence: QVQLVESGGGIVQAGGSLRISCAASGIIFQYYVMGWYRQAPGKESELVAAIEKSGGSTYYADSLKGRFTISRDYAKNTVYLQMNSLNPDDTAVYYCAATSYAHKYYGYFGAIKYEYWGQGTQVTVSS
- polyreactivity (PSR sort gate): low polyreactivity

Sequence: QVPLVESGGGLVQAGGSLRLSCAASGFTFYAYTMGWYRQAPGKERELVAAINKSGSSKYYADSVKGRFTISRDNAKNTVYLQMNSLKPEDTAVYFCNAYYRKVLGYDKMDYWGQGTQVTVSS
- polyreactivity (PSR sort gate): high polyreactivity

Sequence: QVQLVESGGGLVQAGGSLRLSCAASGRTFDYYSMGWYRQAPGKERELVAAIRGSGGSTYYADSVKGRFTISRDNAKNTVSLQMNSLKPEDTAVYYCATDPPYFRTPWEYDYWGQGTQVTVSS
- polyreactivity (PSR sort gate): low polyreactivity

Sequence: QVQLVESGGGLVQAGGSLRLSCAASGITFSEYAMGLYRQAPGKERELVAAITSGGNTYYADSVKGRFTISRDNAKNTVYLQMNSLKPEDTAVYYCAATFSSAFAYYYWGQGTQVTVSS
- polyreactivity (PSR sort gate): low polyreactivity

Sequence: QVQLVESGGGLVQAGGSLRLSCAASGSTFWVNAMGWYRQAPGKERELVAAITYSGGSTHYADSVKGRFTISRDNAKNTVYLQMNSLKPEDTAVYYCNAEHWADYDYWGQGTQVTVSS
- polyreactivity (PSR sort gate): low polyreactivity

Sequence: QVQLVESGGGLVQAGGSLRLSCAPSGSTYSRYAMGWYRQAPGKERELVAAISRSGGTTNYADSVKWRFTISRDNAKNTVYLQMNSLKPEDTAVYYCAAYLPFRQGRYGYEYWGQGTQVTVSS
- polyreactivity (PSR sort gate): high polyreactivity

Sequence: QVQLVESGGGLVQAGGSLRLSCAASGRIFYGYAMGWYRQAPGKERELVAAITRSSSTYYADSVKGRFTISRDNAKNTVYLQMNSLKPEDTAVYYCNARVWAKYDYWGQGTQVTVSS
- polyreactivity (PSR sort gate): high polyreactivity

Sequence: QVQLVESGGGLVQAGGSLRLSCAASGILRANAIGWYRQAPGKERELVATINGDGATYADSVKGRFTISRDNAKNTVYLQLNSLKPEDTAVYYCAAGGGWVVKYDYWGQGTQVTVSS
- polyreactivity (PSR sort gate): low polyreactivity

Sequence: QVQLVESGGGLVQAGGSLRLICAASGSIFGHNAMGWYRQAPGKERELVAAISRGTRTNYADSVKGRFTISRDNEKNTVYLQMNSLKPEDTAVYYCNLQPGRGPYVGRKYGYWGQGTQVTVSS
- polyreactivity (PSR sort gate): high polyreactivity

Sequence: QVQLVESGGGLVQAGGSLRLSCAASGRIFYQYAMGWYRQAPGKERELVASITTSGGNTYYADSVKGRFTISRDNAKNTVYLQMNSLKPEDTAVYYCAARFNWRQWLYDYWGQGTQVTVSS
- polyreactivity (PSR sort gate): low polyreactivity

Sequence: QVQLVESGGGLVQAGGSLRLSCAASGSIFYTYAMGGYRPAPGKERELVAAISSGGSTTYADSVKGRFTISRDNAKNTVYLQMTSLKPEDTAVYYCNTSYRKKKRYYYWGQGTQVTVSS
- polyreactivity (PSR sort gate): high polyreactivity

Sequence: QVQLVESGGGLVQAGGSLRLSCAASGRIFKWYAMGWYRQAPGKEREFVAAINWNGDSTHYADSVKGRFTISRDNAKNTVYLQMNSLKPEDTAVYYCNARVFVTRSYYWGQGTQVTVSS
- polyreactivity (PSR sort gate): low polyreactivity

Sequence: QVQLVESGVCIVEAGGSLRLSCAASGRSLKVYAMGWYRQAPGKERELVAAISQRGGSTYYADSVKGRFTISRDNAKNSVYLQMNSRKPEDTAVYYCAARYPYQSYLYRFDYWGQGTQVTVSS
- polyreactivity (PSR sort gate): high polyreactivity

Sequence: QVQLVESGGGLVQAGGSLRITCAASGRIFGLYAMGWNRQAPGKEREFVAASSWSGTRTNYADSVKGRFTISRDNAKNTVDLQMNSLKPEDTAVYYCAAAYVSYTGYYGQEYDYWGQGTQVTVSS
- polyreactivity (PSR sort gate): high polyreactivity

Sequence: QVQLVESGGGLVQAGGRLRLSCAASGSIFIYNAMGWYRQAPGKERELVATSSSGTRTYYADSVKGRFTISRDNAQNTVYFQMNSLKPEDTAVYNCAADGPFRRTYGDWGQGPQVTVSS
- polyreactivity (PSR sort gate): low polyreactivity

Sequence: QVQLVETGGGLVQAGCSLRLSCAASGSIFSYYAMGWSRQAPGKERELVAGITGSGGSTYADSVKGRFTISRDNAKNTVYLQMNSLKPEDTAVYYCAADLQRYWWWYEYWGQGTQVTVSS
- polyreactivity (PSR sort gate): high polyreactivity

Sequence: QVQLVESGGGLVQAGGSLRLSCAASGYTFFHNAMGWYRQAPGKERELVATISRGGGSTYYADSVKGRFTISRDNAKNTVYLQMNSLKPEDTAVYYCNKGVITYRRGYWGQGTQVTVSS
- polyreactivity (PSR sort gate): low polyreactivity

Sequence: QVQLVESGGGLVQAGGSLRLSCAASGRTFVYNAMGWYRQAPGKERELVAAITSGGRTYYADSVKGRFTISRDNAKNTVYLQMNSLKPEDTAVYYCNAGVGARESDYWGQCTQVTVSS
- polyreactivity (PSR sort gate): low polyreactivity

Sequence: QVQLVESGGGLVQAGGSLRLSCAASGRTFTTYAMGWYRQAPGKARELVAAISDTGGITYYADSVKGRFTISRDNAKNTVYLQMISLKPEDTAVYYCNAESYGGDYDYWGQGTQVTVSS
- polyreactivity (PSR sort gate): low polyreactivity

Sequence: QVQLVESGGGLVQAGGSLRLSCAASGITFAYYVKGWYRQAPGKERQLVAAITRSGDITSYADSVKGRFTISRDNAKNTVYLQMNSLKPEDTAVYYCNARRGYQSRRYNYWGQGTQVTVSS
- polyreactivity (PSR sort gate): high polyreactivity

Sequence: QVQLVESGRGLVQAGGSLRLSCDASGSILRENAMGWSRQAPGKERELVAVITRGGNTYYADSVKGRFTISRDNAKYTFYLQMNSMKREDTAVYYCAAKRRERYGQTYGYWGQGTQVTVSS
- polyreactivity (PSR sort gate): high polyreactivity

Sequence: QVQLVESGGGLVQAGGSLRLSCAASGSTFWEKAIGWSRQAPGKEMELAAAISWGGASTYYADSVKGRFTISRDNAKNTVYLQMNSLKPEDTAVYYCAADQTSTQFLSSYGGYNYWGQGTQVTVSS
- polyreactivity (PSR sort gate): low polyreactivity

Sequence: QVQLVESGGGLVQAGGSLRLSCAASGSIFDGNAMGWYRQAPGKERELVASITYRGGSTYYADSVKGRFTISRDNAKNTVYLQMNSLQPEDTAVYYCAAVFKYRYDYWGQGTQVTVSS
- polyreactivity (PSR sort gate): low polyreactivity

Sequence: QVQLVESGGGLVQAGGSLRLSCAASGRIFHRYAMGWDRQAPGKERELVAAINWRTGNTYYADSVKGRFTISRDNAKNTVYLQMNSLTPEDTAVYYCNARYRSDYWGIQYDYWGQGTQVTVSS
- polyreactivity (PSR sort gate): high polyreactivity

Sequence: QVQLVESGGGLVQAGGSLRLSCAASGSTFSTYTMGWYRQAPGKERELVASISGRGGRTYYADSVKGRFTISRDNAKNTVYLQMNSMKPEDTAVYYCAARYWTLPWYQRGDYWGQGTQVTVSS
- polyreactivity (PSR sort gate): high polyreactivity

Sequence: QVQLVESGGGLVQAGGSLRLSCAASGSTFDFYAMGWYRQAPGKERELVAAITSGGTTNYADSVKGRFTISRDNAKNTVYLQINSLKPEDTAVYYCNAYYLGWYRVRAVTGYYYWGQGTQVTVSS
- polyreactivity (PSR sort gate): low polyreactivity

Sequence: QVQLVESGGGLVQAGGSLRLSCAASGRIFYRNAMGWYRQAPGKERELVAGITRGGSTNYADSVKGRFTISRDNAKNTVYLQMNSLKPEDTAVYYCAKAIPAKFYSEAGYDYWGQGTQVTVSS
- polyreactivity (PSR sort gate): low polyreactivity

Sequence: QVQLVESGGGLVQAGGSLRLSCAASGSTFDSYGMGWYRQAPGKERELVGSISSRGGSTYYADSVKGRFTISRDNAKNTVYLQMNSLKPEDTAVYYCAAEWLSWFHGYGMYYWGQGTQVTVSS
- polyreactivity (PSR sort gate): low polyreactivity

Sequence: QVQLVESGGGLVQAGGSLRLSCAASGSIFFYYTMGWYRQAPGKERELVAAISDSGGSTYYADSVKGRFTISRDNAKNTVYLQMNSLKPEDTAVYYCAAADWFTVLESERVDYWGQGTQVTVSS
- polyreactivity (PSR sort gate): low polyreactivity

Sequence: QVQLVESGGGLVQAGGSLRLSCAASGSIFGYNAMGWYRQAPGKERELVAAISNDGDNTYYADSVKGRFTISRDNAKNTVYLQMNSLKPEDTAVYYCATEYPLTYAYYYYDGGDYWGQGTQVTVSS
- polyreactivity (PSR sort gate): low polyreactivity

Sequence: QVQLVESGGGLVQAGGTLRLSCAASGRTFGWYAMGWYRQAPGKERELVASITQRGGRTYYADSVKGRFTISRDNAKNTVYLQMNSLKPEDTAVYYCAAKTSPGMYYWGQGTQVTVSS
- polyreactivity (PSR sort gate): high polyreactivity
